Consider twelve molecules from patent US20240043533A1 (NGM BIOPHARMACEUTICALS, published 2024).

As a reminder, the Kd is a measure of binding affinity in units of concentration. A word on the koff: it is the rate constant with which the complex falls apart. In general, kon refers to a measure of how fast the partners come together.

Assay [1] deals with T1, extracellular domain of cyno ILT3 (cynoILT3-ECD) (cynomolgus monkey).
T1 chain: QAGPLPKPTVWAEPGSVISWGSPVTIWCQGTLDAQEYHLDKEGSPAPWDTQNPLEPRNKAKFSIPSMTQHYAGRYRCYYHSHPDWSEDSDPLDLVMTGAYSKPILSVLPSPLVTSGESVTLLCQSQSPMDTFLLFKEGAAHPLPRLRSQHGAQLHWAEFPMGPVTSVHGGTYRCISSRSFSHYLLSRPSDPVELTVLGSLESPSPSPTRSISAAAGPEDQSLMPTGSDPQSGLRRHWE
Nature of the assay: SPR (Biacore), antibody captured via anti-Fc on CM5 chip, soluble ILT3-ECD injected, 37 C. On the procedure: (§1) The binding affinities of anti-ILT3 antibodies to human ILT3 and cyno ILT3 were measured using a Biacore system (GE Healthcare LifeSciences). Briefly, anti-Fc antibody (Sigma-Aldrich) was immobilized on all four flow cells of a CM5 chip using amine coupling reagents (GE Healthcare LifeSciences). Antibodies were captured on flow cells 2, 3, and 4 using flow cell 1 as a reference. Concentrations ranging from 3.3-10 nM of human or cyno ILT3-ECD were injected at a flow rate of 50 μL/min at 37° C. Kinetic data were collected over time and fit using the simultaneous global fit equation to yield affinity constants (KD values) for each antibody.
In general terms: In SPR one partner is held on a chip, and binding of the other changes the refractive index at the surface.

Assay [2] has as its target T2, extracellular domain of human ILT3 (huILT3-ECD) (human, UniProt Q8NHJ6 22-259).
T2 construct: also called human ILT3-ECD
Described as above. The method, then:
as §1

Assay [3] concerns the target T1, extracellular domain of cyno ILT3 …. As to the kind of experiment: SPR (Biacore), antibody captured via anti-Fc on CM5 chip, soluble ILT3-ECD injected. The method, then:
as §1
(§2) The binding affinities of various Hz48A6 and Hz45G10 antibodies to human ILT3 and cyno ILT3 were also determined using a Biacore system as described herein. Humanized antibodies comprising various combinations of a heavy chain variable region and a light chain variable region and a human Fc domain were tested, and compared with the binding affinity of the parental chimeric antibody (48A6 chimera comprising mouse 48A6 heavy and light variable regions and a human Fc domain, or 45G10 chimera comprising mouse 45G10 heavy and light variable regions and a human Fc domain).

Assay [4] has as its target T2, extracellular domain of human ILT3 …. The description is as above. The method, then: as §1, §2

B1: anti-ILT3 antibody 12A12 (antibody, V domains shown)
VH: EVQLQQSGPELVKPGASVKISCKASGYTFTDYNMDWVKQSHGKSLEWIGYIYPNNGGTGYNQKFNSKATLTVDKSSSTAYMELHSLTSEDSAVYYCASSPYYDYVGSYAMDYWGQGTSVTVSS
VL: QIVLTQSPAIMSASLGERVTMTCTASSSVSSSYLHWYQQKPGSSPKLWIYSTSNLASGVPARFSGSGSGTSYSLTISSMEAEDAATYYCHQYHRSPRTFGGGTKLEIK
notes: Mouse monoclonal antibody from hybridoma
Consider B1, for which, in assay [1], the Kd came to 1.9 nM, the off-rate (koff) was determined as 0.00028 s⁻¹ and the association rate constant (kon) amounted to 150000 M⁻¹ s⁻¹. In assay [2], this molecule came in with a Kd of 8.5 nM, a koff of 0.00094 s⁻¹ and a kon of 110000 M⁻¹ s⁻¹.

B2: 45G10 chimera (antibody, V domains shown)
VH: EVQLVESGGGLVKPGGSLKLSCAASGFTFSDYGMHWVRQAPEKGLEWVAYIFSGSSTIYYADTVKGRFTISRDNAKNTLFLQMTSLRSEDTAMYYCARADGRGAMDYWGQGTSVTVSS
VL: DVQMTQTTSSLSASLGDRVTISCRASQDISKFLNWYQQKPDGTVTLLIYYTSRLHSGVPSRFSGSGSGTDYSLTISNLDQEDIATYFCQQGNTLPWTFGGGTKLEIK
notes: also called parental chimeric 45G10
Take B2: in assay [3], the Kd was found to be 37 nM, the koff came to 0.015 s⁻¹ and the kon was 410000 M⁻¹ s⁻¹. Further, in assay [4], the equilibrium dissociation constant (Kd) stood at 0.14 nM, the koff worked out at 0.00034 s⁻¹ and the kon amounted to 2.3e+06 M⁻¹ s⁻¹.

B3: anti-ILT3 antibody 45G10 (antibody, V domains shown)
VH: EVQLVESGGGLVKPGGSLKLSCAASGFTFSDYGMHWVRQAPEKGLEWVAYIFSGSSTIYYADTVKGRFTISRDNAKNTLFLQMTSLRSEDTAMYYCARADGRGAMDYWGQGTSVTVSS
VL: DVQMTQTTSSLSASLGDRVTISCRASQDISKFLNWYQQKPDGTVTLLIYYTSRLHSGVPSRFSGSGSGTDYSLTISNLDQEDIATYFCQQGNTLPWTFGGGTKLEIK
notes: as for B1
Consider B3, for which, in assay [1], the Kd was 5 nM, the off-rate (koff) came to 0.00076 s⁻¹ and the kon was found to be 150000 M⁻¹ s⁻¹. For the same molecule, in assay [2], binding was characterised by a dissociation constant (Kd) of 0.13 nM, the koff was 5.1e-05 s⁻¹ and the kon turned out to be 390000 M⁻¹ s⁻¹.

B4: Hz45G10 A2/A4 (antibody, V domains shown)
VH: EVQLVESGGGLVQPGGSLRLSCAASGFTFSDYGMHWVRQAPGKGLEWVAYIFSGSSTIYYADTVKGRFTISRDNAKNSLYLQMNSLRAEDTAVYYCARADGRGAMDYWGQGTTVTVSS
VL: DIQMTQSPSSLSASVGDRVTITCRASQDISKFLNWYQQKPGKAPKLLIYYTSRLHSGVPSRFSGSGSGTDFTFTISSLQPEDIATYFCQQGNTLPWTFGGGTKLEIK
Take B4: in assay [3], the Kd is 113 nM, the koff is 0.02 s⁻¹ and the kon is 190000 M⁻¹ s⁻¹. In addition, in assay [4], the dissociation constant Kd is 0.2 nM, the off-rate (koff) was found to be 0.00028 s⁻¹ and the kon is 1.4e+06 M⁻¹ s⁻¹.

B5: Hz45G10 B1/A4 (antibody, V domains shown)
VH: EVQLVESGGGLVKPGGSLRLSCAASGFTFSDYGMHWVRQAPGKGLEWVSYIFSGSSTIYYADTVKGRFTISRDNAKNSLYLQMNSLRAEDTAVYYCARADGRGAMDYWGQGTLVTVSS
VL: DIQMTQSPSSLSASVGDRVTITCRASQDISKFLNWYQQKPGKAPKLLIYYTSRLHSGVPSRFSGSGSGTDFTFTISSLQPEDIATYFCQQGNTLPWTFGGGTKLEIK
Consider B5, for which, in assay [3], the Kd was 76 nM, the koff is 0.09 s⁻¹ and the kon worked out at 1.2e+06 M⁻¹ s⁻¹. For the same molecule, in assay [4], the Kd amounted to 0.2 nM, the koff was found to be 0.00026 s⁻¹ and the kon worked out at 1.3e+06 M⁻¹ s⁻¹.

B6: Hz48A6 C1/C2 (antibody, V domains shown)
VH: EVQLVESGGGLVQPGGSLRLSCAASGFTFSSYGMSWVRQAPGKGLEWVATISSGGTYTFYPDSVKGRFTISRDNSKNTLYLQMNSLRAEDTAVYYCARRGWLLHYYAMDYWGQGTLVTVSS
VL: DIQLTQSPSFLSASVGDRVTITCRPSESVDSFGNSFMHWFQQKPGKAPKLLIYLSSKLESGVPSRFSGSGSGTEFTLTISSLQPEDFATYYCQQHNEDPFTFGQGTKVEIK
Take B6: in assay [3], the dissociation constant (Kd) was found to be 770 nM, the dissociation rate constant (koff) is 0.088 s⁻¹ and the kon was found to be 114000 M⁻¹ s⁻¹. In addition, in assay [4], the Kd was found to be 0.26 nM, the koff amounted to 0.000705 s⁻¹ and the kon came to 2.72e+06 M⁻¹ s⁻¹.

B7: Hz48A6 B1/C2 (antibody, V domains shown)
VH: EVQLVESGGGLMQPGGSLRLSCAASGFTFSSYGMSWVRQAPGKGLEWVATISSGGTYTFYPDSVKGRFTISRDNAKNSLYLQMNSLRAEDTAVYYCARRGWLLHYYAMDYWGQGTSVTVSS
VL: DIQLTQSPSFLSASVGDRVTITCRPSESVDSFGNSFMHWFQQKPGKAPKLLIYLSSKLESGVPSRFSGSGSGTEFTLTISSLQPEDFATYYCQQHNEDPFTFGQGTKVEIK
As for B7, in assay [3], the Kd came to 531 nM, the off-rate (koff) was 0.092 s⁻¹ and the kon came out at 174000 M⁻¹ s⁻¹. Further, in assay [4], the equilibrium dissociation constant (Kd) was determined as 0.25 nM, the off-rate (koff) came to 0.000764 s⁻¹ and the kon was found to be 3.05e+06 M⁻¹ s⁻¹.

B8: Hz48A6 C0/C2 (antibody, V domains shown)
VH: EVQLVESGGGLVQPGGSLRLSCAASGFTFSSYGMSWVRQAPGKGLEWVGTISSGGTYTFYPDSVKGRFTISRDNSKNTLYLQMNSLRAEDTAVYYCARRGWLLHYYAMDYWGQGTLVTVSS
VL: DIQLTQSPSFLSASVGDRVTITCRPSESVDSFGNSFMHWFQQKPGKAPKLLIYLSSKLESGVPSRFSGSGSGTEFTLTISSLQPEDFATYYCQQHNEDPFTFGQGTKVEIK
With B8, in assay [3], the Kd stood at 177 nM, the dissociation rate constant (koff) was 0.058 s⁻¹ and the kon was determined as 327000 M⁻¹ s⁻¹. Also, in assay [4], the dissociation constant Kd was 0.16 nM, the koff turned out to be 0.000541 s⁻¹ and the kon was 3.45e+06 M⁻¹ s⁻¹.

B9: Hz48A6 B0/C2 (antibody, V domains shown)
VH: EVQLVESGGGLVQPGGSLRLSCAASGFTFSSYGMSWVRQAPGKGLEWVATISSGGTYTFYPDSVKGRFTISRDNAKNSLYLQMNSLRAEDTAVYYCARRGWLLHYYAMDYWGQGTSVTVSS
VL: DIQLTQSPSFLSASVGDRVTITCRPSESVDSFGNSFMHWFQQKPGKAPKLLIYLSSKLESGVPSRFSGSGSGTEFTLTISSLQPEDFATYYCQQHNEDPFTFGQGTKVEIK
As to B9, in assay [3], the dissociation constant Kd came out at 455 nM, the koff was determined as 0.097 s⁻¹ and the kon stood at 213000 M⁻¹ s⁻¹. Also, in assay [4], the Kd came out at 0.28 nM, the koff is 0.000784 s⁻¹ and the kon was 2.8e+06 M⁻¹ s⁻¹.

B10: Hz48A6 C2/C2 (antibody, V domains shown)
VH: EVQLVESGGGLMQPGGSLRLSCAASGFTFSSYGMSWVRQAPGKGLEWVATISSGGTYTFYPDSVKGRFTISRDNSKNTLYLQMNSLRAEDTAVYYCARRGWLLHYYAMDYWGQGTLVTVSS
VL: DIQLTQSPSFLSASVGDRVTITCRPSESVDSFGNSFMHWFQQKPGKAPKLLIYLSSKLESGVPSRFSGSGSGTEFTLTISSLQPEDFATYYCQQHNEDPFTFGQGTKVEIK
Turning to B10, in assay [3], the Kd turned out to be 377 nM, the koff turned out to be 0.082 s⁻¹ and the kon amounted to 217000 M⁻¹ s⁻¹. In addition, in assay [4], the Kd turned out to be 0.24 nM, the off-rate (koff) is 0.000752 s⁻¹ and the on-rate (kon) turned out to be 3.06e+06 M⁻¹ s⁻¹.

B11: 48A6 chimera (antibody, V domains shown)
VH: EVQLVESGGDLMKPGGSLKLSCAASGFTFSSYGMSWVRQTPDKRLEWVATISSGGTYTFYPDSVKGRFTISRDNAKNTLYLQMSSLKSEDTAMYYCARRGWLLHYYAMDYWGQGTSVTVSS
VL: NIVLTQSPASLAVSLGQRATISCRPSESVDSFGNSFMHWFQQKPGQPPKLLIYLSSKLESGVPARFSGSGSRTDFTLTIDPVEADDAATYYCQQHNEDPFTFGSGTKLEIK
notes: also called parental chimeric 48A6
Regarding B11, in assay [3], the Kd stood at 54 nM, the koff is 0.11 s⁻¹ and the kon is 1.99e+06 M⁻¹ s⁻¹. Also, in assay [4], the Kd was determined as 0.066 nM, the koff stood at 0.000868 s⁻¹ and the kon was found to be 1.31e+07 M⁻¹ s⁻¹.

B12: anti-ILT3 antibody 3A3 (antibody, V domains shown)
VH: QVQLKESGPGLVAPSQSLSITCTVSGFSLTSYGVHWVRQPPGKGLEWLGVIWPGGTINYNSALMSRLSISKDNSKSQVFLKLNSLQTDDTAMYYCASDKYDGGWFAYWGQGTLVTVSA
VL: DIVMTQSQKFMSTSVGDRVSITCKASQNVRTAVAWYQQKPGQSPEALIYLASNRHTGVPDRFTGSGSGTDFSLSISNVQSEDLADYFCLQHLNYPLTFGSGTKLEIK
notes: as for B1
On to B12, for which, in assay [1], the Kd was 6.3 nM, the dissociation rate constant (koff) is 0.021 s⁻¹ and the kon was 3.4e+06 M⁻¹ s⁻¹. Also, in assay [2], binding was put at a Kd of 2 nM, the off-rate constant (koff) amounted to 0.00065 s⁻¹ and the kon is 330000 M⁻¹ s⁻¹.
